According to US20190092852A1 (Genentech, published 2019):
Where a chain is given by its changes, count along the chain named. Each block holds one binder with its values, some of them ahead of it.

Tests used:
human IL-33 N-His = target: T1, human IL-33 N-His (human); experiment: cell-based or functional assay
T1 chain: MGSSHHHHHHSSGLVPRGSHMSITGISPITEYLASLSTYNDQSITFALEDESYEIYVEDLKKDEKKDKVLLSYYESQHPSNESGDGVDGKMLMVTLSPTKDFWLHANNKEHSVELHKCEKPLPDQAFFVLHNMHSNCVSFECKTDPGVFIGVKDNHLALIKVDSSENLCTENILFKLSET

[1] = target: T2, human IL-33 (construct not stated) (human, UniProt O95760 112-270); experiment: cell-based or functional assay
T2 sequence (looked up): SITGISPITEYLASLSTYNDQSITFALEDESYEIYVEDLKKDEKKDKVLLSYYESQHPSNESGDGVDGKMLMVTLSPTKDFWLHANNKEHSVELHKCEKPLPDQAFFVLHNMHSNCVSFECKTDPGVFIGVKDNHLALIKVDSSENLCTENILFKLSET

[2] = target: T3, human IL-33 (R&D Systems, #3625-IL-010/CF) (human, UniProt O95760 112-270); experiment: cell-based or functional assay
T3 sequence (looked up): T2 sequence (looked up)

[3] = target: T3, human IL-33 (R&D Systems, …); experiment: cell-based or functional assay; remark: listed apart in the source
[4] = target: T4, cynomolgus monkey N-terminal 6-His-tagged and C-terminal Avi-tagged IL-33 (S112-T270) (cynomolgus monkey); experiment: cell-based or functional assay
T4 chain: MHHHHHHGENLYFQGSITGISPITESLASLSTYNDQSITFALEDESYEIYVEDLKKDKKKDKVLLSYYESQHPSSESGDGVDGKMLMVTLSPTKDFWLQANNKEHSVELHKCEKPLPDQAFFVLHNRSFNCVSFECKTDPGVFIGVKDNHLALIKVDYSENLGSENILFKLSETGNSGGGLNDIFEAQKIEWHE

[5] = target: T3, human IL-33 (R&D Systems, …); experiment: SPR Biacore T200, 25 C
Outline: (§1)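 Antibodies captured via anti-Fc on CM5 chip; IL-33 injected at 3.7–100 nM (three-fold series), 4 min association, 10 min dissociation, 30 μl/min, ADA pH 7.4 buffer with 0.15 M NaCl, EDTA, Tween-20, at 25 °C or 37 °C. KD = koff/kon from 1:1 Langmuir fit; t1/2 = ln(2)/(60*koff).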

cyno IL-33 N-His = target: T5, cyno IL-33 N-His (cynomolgus monkey); experiment: SPR Biacore T200, 25 C
T5 chain: T1 chain with Y32S, E64K, N81S, H105Q, M133R, H134S, S135F, S164Y, C169G, T170S
Outline: as §1

[6] = target: T3, human IL-33 (R&D Systems, …); experiment: cell-based or functional assay; remark: listed apart in the source
[7] = target: T4, cynomolgus monkey N-terminal …; experiment: cell-based or functional assay
[8] = target: T3, human IL-33 (R&D Systems, …); experiment: cell-based or functional assay; remark: listed apart in the source
[9] = target: T3, human IL-33 (R&D Systems, …); experiment: cell-based or functional assay; remark: listed apart in the source

IC50; SEAP reporter, HEK-BLUE IL-33 cells, 15 pM human IL-33 N-His, 20 h (human IL-33 N-His): 12 pM | IC50 (read off the curve); phospho-p38 MFI in CD123+ basophils (average from 2 donors), 10 ng/ml IL-33 [1]: ~300 pM | IC50; IFN-gamma ELISA, primary human NK cells, 260 pM hIL-33 + IL-12 [2]: 3.3e-11 M | HEK-BLUE SEAP reporter IC50 [3]: 2.4 pM | IFN-γ secretion from primary NK cells, IC50 [3]: 30 pM | phospho-p38 in primary basophils, IC50 [3]: 0.15 pM | HEK-BLUE SEAP reporter IC50 [4]: 4200 pM | Kd [5]: 133 pM | koff [5]: 0.000613 s⁻¹ | kon [5]: 4.6e+06 M⁻¹ s⁻¹ | t1/2 [5]: 19 min | Kd (cyno IL-33 N-His): 265 pM | koff (cyno IL-33 N-His): 0.000278 s⁻¹ | kon (cyno IL-33 N-His): 1.05e+06 M⁻¹ s⁻¹ | t1/2 (cyno IL-33 N-His): 42 min
B1: 10C12.38.H6.87Y.58I IgG4 (antibody, V domains shown)
VH: EVQLVESGGGLVQPGGSLRLSCAASGFTFSSFSMSWVRQAPGKGLEWVATISGGKTFTDYVDSVKGRFTISRDDSKNTLYLQMNSLRAEDTAVYYCTRANYGNWFFEVWGQGTLVTVSS
VL: EIVLTQSPATLSLSPGERATLSCRASESVAKYGLSLLNWFQQKPGQPPRLLIFAASNRGSGIPARFSGSGSGTDFTLTISSLEPEDFAVYYCQQSKEVPFTFGQGTKVEIKR
notes: also called anti-IL33 10C12.38.H6.87Y.58I IgG4

IC50; IFN-gamma ELISA, primary human NK cells, 260 pM hIL-33 + IL-12 [2]: 5.1e-10 M | IC50; SEAP reporter (OD 620), HEK-BLUE IL-33/IL-1beta cells, 10 pM hIL-33 [6]: 9.2e-11 M | IC50; SEAP reporter (OD 620), HEK-BLUE IL-33/IL-1beta cells, 5 pM cyno IL-33 (5pM cIL-33-Nhis) [7]: 6.6e-08 M | Kd [5]: 1090 pM | koff [5]: 0.000499 s⁻¹ | kon [5]: 456000 M⁻¹ s⁻¹ | t1/2 [5]: 23 min | Kd (cyno IL-33 N-His): 2610 pM | koff (cyno IL-33 N-His): 0.000479 s⁻¹ | kon (cyno IL-33 N-His): 183000 M⁻¹ s⁻¹ | t1/2 (cyno IL-33 N-His): 24 min | IC50, IL-33-induced phospho-p38 in primary human basophils, 500 pM hIL-33 [8]: 6.7e-13 M | IC50 (read off the curve) [9]: ~0.7 pM
B2: H4H9659P (antibody, IgG4, V domains shown)
VH: QVQLVQSGAEVKKPGASVKVSCKASGYTFNSYGISWVRQAPGQGLEWMGWISSHNGNSHYVQKFQGRVSMTTDTSTSTAYMELRSLRSDDTAVYYCARHSYTTSWYGGFDYWGQGTLVTVSS
VL: DIQMTQSPSSVSASVGDRVTITCRASQGFSSWLAWYQQKPGKAPQLLIYAASSLQSGVPSRFSGSGSGSDFTLTISSLQPEDFATYYCQQANSFPLTFGGGTKVEIK
notes: also called RG7
